# Measured values reported in article PMC6409784, “Chlorambucil Conjugated Ugi Dendrimers with PAMAM-NH2 Core and Evaluation of Their Anticancer Activity” (Pharmaceutics, 2019).
# Read-outs that look alike come from different tables or passages of the source.
# Key:
# Solubility of dendrimers = settings: at 20 mg/mL
# [1] = tested on: PC-3 prostate cancer cell line; assay: Viability by CV and MTT assays (fast screening / dose response); assay type: cell-based, human; settings: 20 µM free chlorambucil, 72 h
# PC-3 cells [2] = assay: cells; settings: Homo sapiens, PC-3, 72 h, read-out: IC50, CV assay, PC-3
# PC-3 cells [3] = assay: cells; settings: Homo sapiens, PC-3, 72 h, read-out: IC50, MTT assay, PC-3
# NIH3T3 fibroblasts [4] = assay: CV viability assay on non-cancerous fibroblasts; assay type: cell-based, mouse; settings: at the IC50 determined for PC-3 (7.3 µM), CV and MTT, 72 h
# PC-3 cells [5] = settings: read-out: IC50, CV assay, PC-3, 72 h
# PC-3 cells [6] = settings: read-out: IC50, MTT assay, PC-3, 72 h
# NIH3T3 fibroblasts [7] = settings: read-out: IC50 NIH3T3, MTT; NIH3T3 mouse fibroblasts, 72 h, MTT assay
SMILES,Solubility (Solubility of dendrimers),further results
COC(=O)CCCNC(=O)C(C(C)C)N(CCNC(=O)CCN(CCC(=O)NCCN(C(=O)CCCc1ccc(N(CCCl)CCCl)cc1)C(C(=O)NCCCC(=O)OC)C(C)C)CCN(CCC(=O)NCCN(C(=O)CCCc1ccc(N(CCCl)CCCl)cc1)C(C(=O)NCCCC(=O)OC)C(C)C)CCC(=O)NCCN(C(=O)CCCc1ccc(N(CCCl)CCCl)cc1)C(C(=O)NCCCC(=O)OC)C(C)C)C(=O)CCCC[C@@H]1SC[C@@H]2NC(=O)N[C@@H]21 (some centres unmarked) [Dendrimer 3a],Low,–
O=C(O)CCCc1ccc(N(CCCl)CCCl)cc1 [chlorambucil],–,activity of free agent on PC-3 cells [1]: almost no activity; IC50 (PC-3 cells [2]): > 100 µM; IC50 (PC-3 cells [3]): > 100 µM
COC(=O)CCCNC(=O)C(C(C)C)N(CCNC(=O)CCN(CCC(=O)NCCN(C(=O)CCCc1ccc(N(CCCl)CCCl)cc1)C(C(=O)NCCCC(=O)OC)C(C)C)CCN(CCC(=O)NCCN(C(=O)CCCc1ccc(N(CCCl)CCCl)cc1)C(C(=O)NCCCC(=O)OC)C(C)C)CCC(=O)NCCN(C(=O)CCCc1ccc(N(CCCl)CCCl)cc1)C(C(=O)NCCCC(=O)OC)C(C)C)C(=O)CCCc1ccc(N(CCCl)CCCl)cc1 (centres unmarked) [Dendrimer 2a],Low,–
COC(=O)CCCNC(=O)C(C(C)C)N(CCNC(=O)CCN(CCC(=O)NCCN(C(=O)CCCC[C@@H]1SC[C@@H]2NC(=O)N[C@@H]21)C(C(=O)NCCCC(=O)OC)C(C)C)CCN(CCC(=O)NCCN(C(=O)CCCC[C@@H]1SC[C@@H]2NC(=O)N[C@@H]21)C(C(=O)NCCCC(=O)OC)C(C)C)CCC(=O)NCCN(C(=O)CCCc1ccc(N(CCCl)CCCl)cc1)C(C(=O)NCCCC(=O)OC)C(C)C)C(=O)CCCC[C@@H]1SC[C@@H]2NC(=O)N[C@@H]21 (some centres unmarked) [Dendrimer 5a],Low,–
CC(C)C(C(=O)NCCCC(=O)O)N(CCNC(=O)CCN(CCC(=O)NCCN(C(=O)CCCC[C@@H]1SC[C@@H]2NC(=O)N[C@@H]21)C(C(=O)NCCCC(=O)O)C(C)C)CCN(CCC(=O)NCCN(C(=O)CCCC[C@@H]1SC[C@@H]2NC(=O)N[C@@H]21)C(C(=O)NCCCC(=O)O)C(C)C)CCC(=O)NCCN(C(=O)CCCc1ccc(N(CCCl)CCCl)cc1)C(C(=O)NCCCC(=O)O)C(C)C)C(=O)CCCC[C@@H]1SC[C@@H]2NC(=O)N[C@@H]21 (some centres unmarked) [Dendrimer 5b],High,–
CC(C)C(C(=O)NCCCC(=O)O)N(CCNC(=O)CCN(CCC(=O)NCCN(C(=O)CCCc1ccc(N(CCCl)CCCl)cc1)C(C(=O)NCCCC(=O)O)C(C)C)CCN(CCC(=O)NCCN(C(=O)CCCc1ccc(N(CCCl)CCCl)cc1)C(C(=O)NCCCC(=O)O)C(C)C)CCC(=O)NCCN(C(=O)CCCc1ccc(N(CCCl)CCCl)cc1)C(C(=O)NCCCC(=O)O)C(C)C)C(=O)CCCC[C@@H]1SC[C@@H]2NC(=O)N[C@@H]21 (some centres unmarked) [Dendrimer 3b],High,–
CC(C)C(C(=O)NCCOCCOCCN)N(CCNC(=O)CCN(CCC(=O)NCCN(C(=O)CCCc1ccc(N(CCCl)CCCl)cc1)C(C(=O)NCCOCCOCCN)C(C)C)CCN(CCC(=O)NCCN(C(=O)CCCc1ccc(N(CCCl)CCCl)cc1)C(C(=O)NCCOCCOCCN)C(C)C)CCC(=O)NCCN(C(=O)CCCc1ccc(N(CCCl)CCCl)cc1)C(C(=O)NCCOCCOCCN)C(C)C)C(=O)CCCc1ccc(N(CCCl)CCCl)cc1 (centres unmarked) [Dendrimer 1b],High,effect on NIH3T3 cell growth (NIH3T3 fibroblasts [4]): did not affect NIH3T3 cell growth at all; IC50 (PC-3 cells [5]): 3.65 ± 0.56 µM; IC50 (PC-3 cells [6]): 7.29 ± 1.18 µM; IC50 (NIH3T3 fibroblasts [7]): 74.4 ± 2.31 µM
CC(C)C(C(=O)NCCOCCOCCNC(=O)OC(C)(C)C)N(CCNC(=O)CCN(CCC(=O)NCCN(C(=O)CCCc1ccc(N(CCCl)CCCl)cc1)C(C(=O)NCCOCCOCCNC(=O)OC(C)(C)C)C(C)C)CCN(CCC(=O)NCCN(C(=O)CCCc1ccc(N(CCCl)CCCl)cc1)C(C(=O)NCCOCCOCCNC(=O)OC(C)(C)C)C(C)C)CCC(=O)NCCN(C(=O)CCCc1ccc(N(CCCl)CCCl)cc1)C(C(=O)NCCOCCOCCNC(=O)OC(C)(C)C)C(C)C)C(=O)CCCc1ccc(N(CCCl)CCCl)cc1 (centres unmarked) [Dendrimer 1a],Low,–
